Assay: soluble on expression in E. coli; label from the status in PepcDB or PDB records

Row | Sequence | soluble on expression in E. coli
1 | MAATCSWKTCEETEQNTFIVKFSNGNVKNAEELDFTVFKHSNASNPRKKNRRIVVADSDRLPYVGSNFGSGSLQSNNMCKYFVGVLDKQTMQMKVHSAQLFNMLPVIPGEATEAESENQPSTFRDKVDALIEAFGTNKQKRALSSRRLNAVGNETLHQAVAQAASNIIDQKGVEALRNEVIETEAQSDAALFLPPCNANADKLEDVYPFDQLLTPNEFESLKEVGAKYATLSSEDLQKMRDNHCPQTVLKHLETLSKDEADRDRQCRCAWYLSFVIRASLQKRISFKFGSDDGCPRIIINKVLKNFTVESFHNGSLRNTVSMSMRMKMASYCLALLLHMGGQTANLTLLHRDMSISENKMLEVAKAMGLTLSRQNALGKEGGLIEDEHRMVSLVLPLVHYDRRTERKKRKRMN | soluble
2 | MADAIQTAPRFTGKNRDPQLFTVTNHYNEAGTGPLEAAICRHNPLHVVSAALRHQHEESQCPDRKWNPSEKIVKYKDMQ | not soluble
3 | MADDRGVFPGQWALSGGGVESGERIEEALRREIREELGEQLLLTEITPWTFSDDIRTKTYADGRKEEIYMIYLIFDCVSANREVKINEEFQDYAWVKPEDLVHYDLNVATRKTLRLKGLL | not soluble
4 | MADEALFLLLHNEMVSGVYKSAEQGEVENGRCITKLENMGFRVGQGLIERFTKDTARFKDELDIMKFICKDFWTTVFKKQIDNLRTNHQYLAFTCGLIRGGLSNLGIKSIVTAEVSSMPACKFQVMIQKL | not soluble
5 | MADGLRVALVAGEASGDILGSGLMQALRARHPDIEFIGVGGPRMEAEGLSSYFPMERLSVMGLVEVLGRLPELLRRRKRLIRTLIEARPDVMIGIDAPDFTLGVEHKLRQAGLRTVHYVSPSVWAWRQKRVLKIREACDLMLALFPFEARFYEEHGVPVRFVGHPLANTIPLQADRAAARARLGLPADGQVLALMPGSRGGEVGKLGALFLDTAQRLLVERPGLRFVLPCASAARREQIEQMLQGREPLPLTLLDGASHEALAACDAVLIASGTATLEALLYKRPMVVAYRVAGLTYRILKRLVKSPYISLPNLLAGRLLVPELIQDAATPQALAATLSPLLDDGSQQVEFFDAIHRALRQDASAQAA | not soluble
6 | MADHSIQGKVALIAGGAKNLGGLIARDLAAHGARAIAIHYNSPASKADADATVAALQAAGAQAVALQGDLTTAAAVEKLYADALAAVGRPDIAINTVGKVLKKPFSEISEAEYDEMAAVNAKSAFFFLKEAGRHVNDHGKIVTLVTSLLGAFTPFYSAYAGTKAPVEHYTRAAAKEFGARGISVTAVGPGPMDTPFFYGQESPEAVAYHQSAAALSPHSPTGLTHIEDVVPFIRHLVSDGWWITGQTLLINGGYTTK | not soluble
7 | MADRIELRGLTVHGRHGVYDHERVAGQRFVIDVTVWIDLAEAANSDDLADTYDYVRLASRAAEIVAGPPRKLIETVGAEIADHVMDDQRVHAVEVAVHKPQAPIPQTFDDVAVVIRRSRRGGRGWVVPAGGAV | soluble
8 | MADSQTSSNRAGEFSIPPNTDFRAIFFANAAEQQHIKLFIGDSQEPAAYHKLTTRDGPREATLNSGNGKIRFEVSVNGKPSATDARLAPINGKKSDGSPFTVNFGIVVSEDGHDSDYNDGIVVLQWPIG | soluble
9 | MADYNIPHFQNDLGYKIIEIGVKEFMCVGATQPFDHPHIFIDMGSTDEKICPYCSTLYRYDPSLSYNQTNPTGCLYNPK | not soluble
10 | MAEFLDDQETRLCDNCKKEIPVFNFTIHEIHCQRNIGMCPTCKEPFPKSDMETHMAAEHCQVTCKCNKKLEKRLLKKHEETECPLRLAVCQHCDLELSILKLKEHEDYCGARTELCGNCGRNVLVKDLKTHPEVCGREGEEKRNEVAIPPNAYDESWGQDGIWIASQLLRQIEALDPPMRLPRRPLRAFESDVFHNRTTNQRNITAQVSIQNNLFEEQERQERNRGQQPPKEGGEESANLDFMLALSLQNEGQASSVAEQDFWRAVCEADQSHGGPRSLSDIKGAADEIMLPCEFCEELYPEELLIDHQTSCNPSRALPSLNTGSSSPRGVEEPDVIFQNFLQQAASNQLDSLMGLSNSHPVEESIIIPCEFCGVQLEEEVLFHHQDQCDQRPATATNHVTEGIPRLDSQPQETSPELPRRRVRHQGDLSSGYLDDTKQETANGPTSCLPPSRPINNMTATYNQLSRSTSGPRPGCQPSSPCVPKLSNSDSQDIQGRNRDSQNGAIAPGHVSVIRPPQNLYPENIVPSFSPGPSGRYGASGRSEGGRNSRVTPAAANYRSRTAKAKPSKQQGAGDAEEEEEE | soluble
11 | MAEGGTPVVATKPPVDNAKMLGELKLRLMHTKKGLLAIRGELQRRAEIWGAAQEEITALEKMASDAKERIQKQSDQKREERKLAAQKRKELKQKQKEEKKEESKDEKDGADDEKNDEN | not soluble
12 | MAEGPLEAPFWRKGLLVAGLDEAGRGAWAGPIVVGAVVLPPGEYPFRDSKLLSPKARERLAEKVKEVALAFALGVAEAAEVDRLGVLKATLLAAERALLSLPLAPEALVTDYLPLPTPLPLLSPPKADEKSPTVAAASILAKVHRDRIMDELDRLYPGYGFARHKGYGTQEHQEALLALGPSPVHRKRFAPVAQAPLRFPEAP | soluble
13 | MAEGQIIKALSGFYYVLSEGRVFQCRGRGVFRKKKVTPLVGDRVVFQATSETEGYILEIGERQNELVRPPIANVEQAILVFSAVSPDFSAKLLDRFLVLVESKRIAPIIVISKIDLLDGESKEEIARYVHDYRSIGYDVIETSAVTKGGLDELALRLRGRVSVVAGQSGVGKSSLLNALRPDLRLKTGDISTHLGRGKHTTRHVELLEVAGGLVADTPGFGALEFDQIELDELPHYFPEFRTYGEGCKFRGCLHIAEPKCAVREAVEAGEIPSYRYDHYVSFVAEMKERKPRY | not soluble
14 | MAEGVNEPCFPGDCGIFVTKVDKGSIADGRLRVNDWLLRINDVDLINKDKKQAIKALLNGEGAINMVVRRRKSLGGKVVTPLHINLSGQKDSGISLENGVYAAAVLPGSPAAKEGSLAVGDRIVAINGIALDNKSLNECESLLRSCQDSLTLSLLKVFPQSSSWSGQNIFENIKDSDKMLSFRAHGPEVQAHNKRNLIQHNNSTQTDIFYTDRLEDRKEPGPPGGSSSFLHKPFPGGPLQVCPQACPSASERSLSSFRSDASGDRGFGLVDVRGRRPLLPFETEVGPCGVGEASLDKADSEGSNSGGTWPKAMLSSTAVPEKLSVYKKPKQRKSIFDPNTFKRPQTPPKIDYLLPGPGPAHSPQPSKRAGPLTPPKPPRRSDSIKFQHRLETSSESEATLVGSSPSTSPPSALPPDVDPGEPMHASPPRKARVRIASSYYPEGDGDSSHLPAKKSCDEDLTSQKVDELGQKRRRPKSAPSFRPKLAPVVIPAQFLEEQKCVPASGELSPELQEWAPYSPGHSSRHSNPPLYPSRPSVGTVPRSLTPSTTVSSILRNPIYTVRSHRVGPCSSPPAARDAGPQGLHPSVQHQGRLSLDLSHRTCSDYSEMRATHGSNSLPSSARLGSSSNLQFKAERIKIPSTPRYPRSVVGSERGSVSHSECSTPPQSPLNIDTLSSCSQSQTSASTLPRIAVNPASLGERRKDRPYVEEPRHVKVQKGSEPLGISIVSGEKGGIYVSKVTVGSIAHQAGLEYGDQLLEFNGINLRSATEQQARLIIGQQCDTITILAQYNPHVHQLSSHSRSSSHLDPAGTHSTLQGSGTTTPEHPSVIDPLMEQDEGPSTPPAKQSSSRIAGDANKKTLEPRVVFIKKSQLELGVHLCGGNLHGVFVAEVEDDSPAKGPDGLVPGDLILEYGSLDVRNKTVEEVYVEMLKPRDGVRLKVQYRPEEFTKAKGLPGDSFYIRALYDRLADVEQELSFKKDDILYVDDTLPQGTFGSWMAWQLDENAQKIQRGQIPSKYVMDQEFSRRLSMSEVKDDNSATKTLSAAARRSFFRRKHKHKRSGSKDGKDLLALDAFSSDSIPLFEDSVSLAYQRVQKVDCTALRPVLILGPLLDVVKEMLVNEAPGKFCRCPLEVMKASQQAIERGVKDCLFVDYKRRSGHFDVTTVASIKEITEKNRHCLLDIAPHAIERLHHMHIYPIVIFIHYKSAKHIKEQRDPIYLRDKVTQRHSKEQFEAAQKLEQEYSRYFTGVIQGGALSSICTQILAMVNQEQNKVLWIPACPL | soluble
15 | MAEHRSMQRAALLDAARSLLSDGGTEALTFPALAERTGLARSSVYEYFRSRAAVVEELCAVDFPVWAAEVEAAMERETAPDAKVEAYVRTQLDLVGDRRHRAVVAISASELDAGAREKIRAAHGGLIAMIVEALGEMGHGQPRLAAMLLQGVVDAAVRRIELGAAEEPGAITEAAVSMALRGVRG | not soluble
16 | MAEKALATLKELAFLEDPSPVERDAAIQRFEYTFEAFWKALQAYLREKEGLEGASPKGVIRLAREVGLLRDEEARLALGMVDDRSLTVHTYNEPLARAIFRRLPDYARLMEQVLGRLRR | soluble
17 | MAEKMQAIMKTKPAYGAELVEVDVPKPGPGEVLIKVLATSICGTDLHIYEWNEWAQSRIKPPQIMGHEVAGEVVEVGPGVEDLQVGDYISVETHIVCGKCYACKHNRYHVCQNTKIFGVDMDGVFAHYAIVPAKNAWKNPKDMPPEYAALQEPLGNAVDTVLAGPIAGRSTLITGAGPLGLLGIAVAKASGAYPVIVSEPSEFRRKLAKKVGADYVVNPFEEDPVKFVMDITDGAGVEVFLEFSGAPKALEQGLKAVTPGGRVSLLGLFPREVTIDFNNLIIFKALEVHGITGRHLWETWYTVSSLIQSGKLNLDPIITHKYKGFDKFEEAFELMRAGKTGKVVFFPHKG | soluble
18 | MAELSDQEMLRYNRQIILRGFDFDGQEALKDSRVLIVGLGGLGCAASQYLASAGVGNLTLLDFDTVSLSNLQRQTLHSDATVGQPKVESARDALTRINPHIAITPVNALLDDAELAALIAEHDLVLDCTDNVAVRNQLNAGCFAAKVPLVSGAAIRMEGQITVFTYQDGEPCYRCLSRLFGENALTCVEAGVMAPLIGVIGSLQAMEAIKMLAGYGKPASGKIVMYDAMTCQFREMKLMRNPGCEVCGQ | soluble
19 | MAERELYIGVMSGTSLDGVDTALVALQDDNIELLAHHDYPIPADLKQRLLNVCIGQPTTLIAMGELEHDLGHLFSDAVLALLQHSGYRAEHIRAIGCHGQTVFHQPTGTKPFTMQIGDANIIATRTGITTVADFRRKDVALGGQGAPLVPAFHRTIFHAEQSTVVVLNIGGIANISVLKPNGEVVGYDTGPGNMLMDSWCQKERNQPYDKDALWAKQGSVNAALLSHLKQDHYFALPAPKSTGRELFNLPWLETQLATFSVDATDVQRTLCEFTAQTIVEQVAPFAEGPQPQLLVCGGGAQNPLLMERLQALLPSWQVAPTTQMGVDGDNMEAMAFAWLAQRRIHGLPSNLPAVTGASRLASLGVIYYPD | not soluble
20 | MAERTHFMELALVEARSAGERDEVPIGAVLVLDGRVIARSGNRTRELNDVTAHAEIAVIRMACEALGQERLPGADLYVTLEPCTMCAAAISFARIRRLYYGAQDPKGGAVESGVRFFSQPTCHHAPDVYSGLAESESAEILRQF | soluble
21 | MAESFTTTNRYFDNKHYPRGFSRHGDFTIKEAQLLERHGYAFNELDLGKREPVTEEEKLFVAVCRGEREPVTEAERVWSKYMTRIKRPKRFHTLSGGKPQVEGAEDYTDSDD | soluble
22 | MAETIISLLSPTLDIKSPYYFNPDYLHQFNMHTNTAIDKLSEAKDNYAIWKLRFFDLLQFTNKTGFIDGTLPKPDPSSPYYEPWKQCNAIVLHWLSNTVTDTLQNHVLQAETVHKAWEDLRRIFVPCIDFKIYELRQRLATLRQGGDSVAEYFGKLSKAWLELKAYDPVQECKCGGCDCESEKRATEAREKEQRYAFLMGLNKEFDYVKMKVMHKKIPPSVYQAYEMVVYSEAMMKWKMGGRI | soluble
